Measured values: US6284871

How the values were obtained:
[1] = biological target: purified human Factor IXa (human) (UniProt P00740)
[2] = biological target: non-activated Factor IX (Homo sapiens (Human)) (UniProt P00740)
[3] = biological target: purified human Factor IXa (human) (UniProt P00740); remark: listed apart in the source
[4] = biological target: non-activated Factor IX (Homo sapiens (Human)) (UniProt P00740); assay: equilibrium binding in solution (method of Friguet): 30 nM Factor IX with varying peptide, non-bound Factor IX measured on immobilized peptide
[5] = biological target: purified human Factor IXa (human) (UniProt P00740); assay: equilibrium binding in solution (method of Friguet): 30 nM Factor IXa with varying peptide, non-bound Factor IXa measured on immobilized peptide

Anticoagulant activity in the APTT test (prolongation of the clotting time in seconds) [1] [s]	half-maximal inhibition in the APTT test [2] [mM]	half-maximal inhibition in the APTT test [3] [mM]	Kd [4] [µM]	Kd [5] [µM]	Molecule
8.6	–	–	–	–	complete Factor VIII light chain (residues 1649-2332) (from UniProt P00451)
–	0.3	0.3	230	200	KNFVKPNETKTYFWK [compound … (SEQ ID NO: 3), synthetic peptide of Factor VIII A3-domain residues 1804-1818]
